Molecular target: T1, SARS‐CoV‐2 NSP3 SUD‐M domain (1356–1493), tag cleaved, for FP, P0DTD1
T1 chain: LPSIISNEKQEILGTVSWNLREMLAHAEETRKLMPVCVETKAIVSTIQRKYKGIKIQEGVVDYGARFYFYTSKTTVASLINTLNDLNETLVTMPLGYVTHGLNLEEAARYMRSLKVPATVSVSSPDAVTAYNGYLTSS
Experiment: fluorescence polarization (FP)-based affinity measurement
Conditions: chain shown with the change;; read off a plot

With QFTEEDLMFVLYGVTPY [PRDM14 wt peptide 196-211 H203M] the ratio to parent was 5.6 fold.

QFTEEELHFVLYGVTPY [PRDM14 wt peptide 196-211 D201E] gave a ratio to parent of 14 fold.

— article PMC12102759
